Experiments:
[1] = target: the molecule itself; assay: SEC-MALS; Superdex 200 Increase, 20 mM Na-Hepes pH 7.0, 200 mM NaCl; DNAJC12 3 mg/mL, TH, TH:DNAJC12 complex, TH(1-158) and TH(155-497) 2 mg/mL
[2] = target: T1, DNAJC12-F193G (human, UniProt Q9UKB3-1 1-198, F193G); assay: BLI; biotinylated TH or TH variant immobilised on streptavidin sensors; DNAJC12 or variant 0.01-4 μM in solution; PBS, 0.02% Tween-20, 0.5 mg/mL BSA, 25 °C; responses fitted to a one-site hyperbola; conditions: both partners purified
T1 construct: source: E. coli BL21-CodonPlus(DE3)-RIL, purified (HisTrap, TEV cleavage, TALON, amylose, SEC); not shown: His6, N-terminal, cleaved; MBP, N-terminal, cleaved
T1 sequence (Q9UKB3 whole entry F193G): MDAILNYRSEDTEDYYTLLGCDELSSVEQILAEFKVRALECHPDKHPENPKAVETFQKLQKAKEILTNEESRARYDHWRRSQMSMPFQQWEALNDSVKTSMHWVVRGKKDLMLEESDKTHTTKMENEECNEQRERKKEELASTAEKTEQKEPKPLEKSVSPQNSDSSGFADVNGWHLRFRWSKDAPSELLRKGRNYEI

Binder | stoichiometry N [1] | Kd [2]
TH regulatory domain, TH(1-158) (domain or fragment, human, UniProt P07101-3 1-158, looked up, biotinylated with EZ-Link NHS-PEG4-Biotin for BLI only) MPTPDATTPQAKGFRRAVSELDAKQAEAIMSPRFIGRRQSLIEDARKEREAAVAAAAAAVPSEPGDPLEAVAFEEKEGKAVLNLLFSPRATKPSALSRAVKVFETFEAKIHHLETRPAQRPRAGGPHLEYFVRLEVRRGDLAALLSGVRQVSEDVRSP | 2 | –
TH-R202H (TH-p.R202H), variant associated with TH deficiency (enzyme, biotinylated with EZ-Link NHS-PEG4-Biotin for BLI only) not shown | 4 | –
Tyrosine hydroxylase, wild-type (hTH1) (enzyme, biotinylated with EZ-Link NHS-PEG4-Biotin for BLI only) not shown | – | 1180 nM
TH catalytic and oligomerization domains, TH(155-497) (domain or fragment, biotinylated with EZ-Link NHS-PEG4-Biotin for BLI only) not shown | 4 | –

From PMC11926245 (Nature Communications, 2025)
